T1: Thermoplasma acidophilum exosome subunit Rrp41 (TaciRrp41) (Thermoplasma acidophilum, UniProt Q9HIP2 1-248)
T1 construct: Exosome complex component Rrp41 of Thermoplasma acidophilum; Single subunit (pET22b) used as ligand in MST; in the crystals the chain came from the pETDuet-1 co-expression with TaciRrp42; source: E. coli BL21 (DE3), from pET22b alone or from pETDuet-1 co-expressed with TaciRrp42; purified (Ni-NTA, Superdex 200)
T1 sequence: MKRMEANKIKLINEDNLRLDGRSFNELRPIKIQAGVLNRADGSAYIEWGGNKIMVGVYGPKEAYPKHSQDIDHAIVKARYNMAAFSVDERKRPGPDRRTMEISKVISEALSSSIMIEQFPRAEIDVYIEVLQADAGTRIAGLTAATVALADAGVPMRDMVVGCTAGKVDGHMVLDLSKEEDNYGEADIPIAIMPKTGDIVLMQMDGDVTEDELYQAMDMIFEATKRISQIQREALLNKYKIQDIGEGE

T2: TaciRrp41:42 complex (Thermoplasma acidophilum exosome core, Rrp41 with truncated Rrp42) (Thermoplasma acidophilum, UniProt Q9HIP2 1-248; Q9HIP1 20-240)
T2 construct: Exosome complex component Rrp41 of Thermoplasma acidophilum; as the chain of m1; Exosome complex component Rrp42 of Thermoplasma acidophilum, truncated core domain of residues 20-240; as the chain of m2; The complex was purified on Ni-NTA and labelled with the His-tag labelling kit (RED-tris-NTA) for MST; the oligomeric state in the MST sample was not measured; also called TaciRrp41/cd-TaciRrp42; …
T2 sequence 1: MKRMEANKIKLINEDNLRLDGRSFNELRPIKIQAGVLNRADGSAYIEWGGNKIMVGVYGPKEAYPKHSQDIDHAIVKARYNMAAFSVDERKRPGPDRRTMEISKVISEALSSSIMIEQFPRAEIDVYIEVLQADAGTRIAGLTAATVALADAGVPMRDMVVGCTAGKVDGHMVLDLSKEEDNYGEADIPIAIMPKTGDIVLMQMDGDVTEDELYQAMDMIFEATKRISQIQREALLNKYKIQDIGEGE
T2 sequence 2: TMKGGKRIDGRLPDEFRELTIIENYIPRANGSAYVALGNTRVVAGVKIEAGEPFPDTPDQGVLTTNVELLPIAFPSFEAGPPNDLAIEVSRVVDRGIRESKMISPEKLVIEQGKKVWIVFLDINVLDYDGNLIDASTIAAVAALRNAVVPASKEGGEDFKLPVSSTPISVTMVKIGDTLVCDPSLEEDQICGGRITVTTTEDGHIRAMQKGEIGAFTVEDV

B1: Thermoplasma acidophilum exosome subunit Rrp4 (TaciRrp4) (natural protein, UniProt Q9HIP3 1-236, looked up)
chain: MYQLGDVKKIVLPGDPIEVQGKMRNGVYRGQDNRYYSEYFGTLQVNDQFVDVVPFSGQYIPRKGDKVIGKVIEVGPSTWTVDINSPYFAMLHMNDTPWRMSSGDLKRYLNAGDYIYAKIMSVNEIKESWLTLKEPGLKKLEGGHMVLIHASRVPRVIGKGGGMVNMVKELTATRIIIGQNGLIWIDGPIEGVTMAIAAIEMIEREAHTEGLTARVESFLKELKGEKDGSQQNKADQ
notes: Exosome complex component Rrp4 of Thermoplasma acidophilum (N-terminal domain, S1 domain, KH domain); also called TaciRrp4-capping protein; source: E. coli Rosetta, from pET22b; purified (Ni-NTA, Superdex 200)

Legend:
Experiment in all cases: MST; target (TaciRrp42 or TaciRrp41:42) labelled by RED-tris-NTA His-tag kit, 50 nM; ligand in sixteen serial dilutions (TaciRrp41 550 μM to 16.6 nM; TaciRrp4 200 μM to 6.1 nM); 30 min incubation; LED power and MST power 40%; triplicate
Conditions in all cases: both partners purified
[1] = target: B1
[2] = target: T1, Thermoplasma acidophilum exosome …
[3] = target: T2, TaciRrp41:42 complex (Thermoplasma …)

Kd [1] [µM] | Kd [2] [µM] | Kd [3] [µM] | Binder
4.82 | 169 |  | Thermoplasma acidophilum exosome subunit Rrp42, truncated core domain, residues 20-240 (TaciRrp42) (domain or fragment, UniProt Q9HIP1 20-240, looked up, RED-tris-NTA fluorescent dye on the His tag (in MST), Exosome complex component Rrp42 of Thermoplasma acidophilum, truncated Rrp42 corresponding to the core domain composed of residues 20-240; Single subunit (pET28a) was the labelled target in MST; in the crystals the chain came from the pETDuet-1 co-expression; also called cd-TaciRrp42; source: E. coli BL21 (DE3), from pET28a alone or from pETDuet-1 co-expressed with TaciRrp41; purified (Ni-NTA, …)) TMKGGKRIDGRLPDEFRELTIIENYIPRANGSAYVALGNTRVVAGVKIEAGEPFPDTPDQGVLTTNVELLPIAFPSFEAGPPNDLAIEVSRVVDRGIRESKMISPEKLVIEQGKKVWIVFLDINVLDYDGNLIDASTIAAVAALRNAVVPASKEGGEDFKLPVSSTPISVTMVKIGDTLVCDPSLEEDQICGGRITVTTTEDGHIRAMQKGEIGAFTVEDV
 |  | 200 | B1

From publication PMC11201974, “Structural Insights into the Rrp4 Subunit from the Crystal Structure of the Thermoplasma acidophilum Exosome” (Biomolecules, 2024)
